Residue numbers refer to the chain shown, from its start.
Legend:
[1] = molecular target: T1, BRCA2MBD;MEILB2 (22-338);BRME1MBD (Mus musculus;Mus musculus;Mus musculus) (UniProt P97929+Q9D4G2+Q6DIA7); test: EMSA; conditions: EMSA: 20 mM HEPES pH 7.5, 325 mM KCl, 60 min room temperature; 0.4% agarose, 0.5x TBE pH 8.0, 4 C; 50 uM DNA per bp/base (qualitative). Pulldown: 20 mM HEPES …
T1 sequence 1: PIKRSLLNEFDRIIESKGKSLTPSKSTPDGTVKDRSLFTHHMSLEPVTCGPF
T1 sequence 2: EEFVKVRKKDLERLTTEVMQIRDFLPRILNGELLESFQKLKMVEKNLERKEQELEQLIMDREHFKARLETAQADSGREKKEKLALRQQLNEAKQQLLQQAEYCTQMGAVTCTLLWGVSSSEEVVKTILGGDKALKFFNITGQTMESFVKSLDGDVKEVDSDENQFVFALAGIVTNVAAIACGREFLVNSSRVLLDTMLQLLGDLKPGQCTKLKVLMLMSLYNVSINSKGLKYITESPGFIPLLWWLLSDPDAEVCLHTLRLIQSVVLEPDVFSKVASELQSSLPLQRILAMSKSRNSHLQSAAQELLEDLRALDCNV
T1 sequence 3: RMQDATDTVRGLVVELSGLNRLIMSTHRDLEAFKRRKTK

[2] = molecular target: T2, BRCA2MBD;MEILB2 K26E;BRME1MBD K26E (Mus musculus;Mus musculus;Mus musculus) (UniProt P97929+Q9D4G2+Q6DIA7); test: EMSA; conditions: EMSA: 20 mM HEPES pH 7.5, 325 mM KCl, 60 min room temperature; 0.4% agarose, 0.5x TBE pH 8.0, 4 C; 50 uM DNA per bp/base (qualitative). Pulldown: 20 mM HEPES …
T2 sequence 1: T1 sequence 1
T2 sequence 2: T1 sequence 2 with K5E
T2 sequence 3: T1 sequence 3

[3] = molecular target: T3, BRCA2MBD;MEILB2 (22-338);BRME1MBD (Mus musculus;Mus musculus;Mus musculus, UniProt P97929;Q9D4G2;Q6DIA7 2232-2283;22-338;540-578, ||); test: EMSA; apparent Kd, Hill n = 4; 2:4:4 complex; 50 nM DNA; EMSA: 20 mM HEPES pH 7.5, 325 mM KCl, 60 min room temperature; 0.4% agarose, 0.5x TBE pH 8.0, 4 C; 50 uM DNA per bp/base (qualitative). Pulldown: 20 mM HEPES pH 7.5, 150 mM KCl, 10% glycerol, room temperature; conditions: protein: recombinant;recombinant;recombinant, tags: MBP tag, TEV-cleaved;His6-MBP tag, chain copies: 2;4;4, label: FAM, blunt
T3 sequence 1: T1 sequence 1
T3 sequence 2: T1 sequence 2
T3 sequence 3: T1 sequence 3

[4] = molecular target: T4, MEILB2 (22-338);BRME1MBD (Mus musculus;Mus musculus, UniProt Q9D4G2;Q6DIA7 22-338;540-578, |); test: EMSA; apparent Kd, Hill n = 3; 2:2 complex concentration; 50 nM DNA; EMSA: 20 mM HEPES pH 7.5, 325 mM KCl, 60 min room temperature; 0.4% agarose, 0.5x TBE pH 8.0, 4 C; 50 uM DNA per bp/base (qualitative). Pulldown: 20 mM HEPES pH 7.5, 150 mM KCl, 10% glycerol, room temperature; conditions: protein: recombinant;recombinant, tags: His6-MBP tag, TEV-cleaved;His6 tag, chain copies: 2;2, label: FAM, blunt
T4 sequence 1: T1 sequence 2
T4 sequence 2: T1 sequence 3

[5] = molecular target: T5, MEILB2 (22-338);BRME1MBD R540E R549E (Mus musculus;Mus musculus, UniProt Q9D4G2;Q6DIA7 22-338;540-578, |R540E;R549E); test: pull-down; 150 mM KCl; EMSA: 20 mM HEPES pH 7.5, 325 mM KCl, 60 min room temperature; 0.4% agarose, 0.5x TBE pH 8.0, 4 C; 50 uM DNA per bp/base (qualitative). Pulldown: 20 mM HEPES pH 7.5, 150 mM KCl, 10% glycerol, room temperature; conditions: protein: recombinant;recombinant, tags: His6-MBP tag, TEV-cleaved;His6 tag, chain copies: 2;2, blunt
T5 sequence 1: T1 sequence 2
T5 sequence 2: T1 sequence 3 with R1E, R10E

[6] = molecular target: T6, BRCA2MBD;MEILB2 K26E;BRME1MBD (Mus musculus;Mus musculus;Mus musculus, UniProt P97929;Q9D4G2;Q6DIA7 2232-2283;22-338;540-578, |K26E|); test: EMSA; EMSA: 20 mM HEPES pH 7.5, 325 mM KCl, 60 min room temperature; 0.4% agarose, 0.5x TBE pH 8.0, 4 C; 50 uM DNA per bp/base (qualitative). Pulldown: 20 mM HEPES pH 7.5, 150 mM KCl, 10% glycerol, room temperature; conditions: protein: recombinant;recombinant;recombinant, tags: MBP tag, TEV-cleaved;His6-MBP tag, chain copies: 2;4;4, blunt
T6 sequence 1: T1 sequence 1
T6 sequence 2: T1 sequence 2 with K5E
T6 sequence 3: T1 sequence 3

[7] = molecular target: T3, BRCA2MBD;MEILB2 (22-338);BRME1MBD; test: as above; conditions: protein: recombinant;recombinant;recombinant, tags: MBP tag, TEV-cleaved;His6-MBP tag
[8] = molecular target: T4, MEILB2 (22-338);BRME1MBD; test: as above; conditions: protein: recombinant;recombinant, tags: His6-MBP tag, TEV-cleaved;His6 tag, chain copies: 2;2, hairpin with 3' poly(dT) overhang
[9] = molecular target: T4, MEILB2 (22-338);BRME1MBD; test: EMSA; apparent Kd, Hill n = 2; 2:2 complex concentration; 100 nM DNA; EMSA: 20 mM HEPES pH 7.5, 325 mM KCl, 60 min room temperature; 0.4% agarose, 0.5x TBE pH 8.0, 4 C; 50 uM DNA per bp/base (qualitative). Pulldown: 20 mM HEPES pH 7.5, 150 mM KCl, 10% glycerol, room temperature; conditions: protein: recombinant;recombinant, tags: His6-MBP tag, TEV-cleaved;His6 tag, chain copies: 2;2, label: 5'-FAM

Work on “ATGGAATCTAAAGAAGAATTTGTTAAAGTCAGAAAGAAGGACCTGGAACGGCTGACGACGGAAGTGATGCAAATACGGGACTTCTTACCCAGAATACTAAATGGGGAGTTACTGGAAAGTTTCCAGAAATTAAAGATGGTAGAAAAAAACCTGGAAAGAAAAGAACAAGAATTAGAGCAACTGATAATGGACCGTGAACACTTCAAAGCCCGGCTAGAAACTGCACAGGCAGACAGTGGGAGGGAGAAGAAGGAGAAGTTGGCTCTTCGACAGCAGCTGAATGAGGCAAAACAGCAGCTC (double strand) [FAM-300 bp dsDNA]” yielded a Kd [1] of 310 nM and a Kd [2] of 300 nM.

B1: FAM-75 bp dsDNA (dsDNA)
DNA 1: ATGGAATCTAAAGAAGAATTTGTTAAAGTCAGAAAGAAGGACCTGGAACGGCTGACGACGGAAGTGATGCAAATA
DNA 2: TATTTGCATCACTTCCGTCGTCAGCCGTTCCAGGTCCTTCTTTCTGACTTTAACAAATTCTTCTTTAGATTCCAT
Molecule B1 has a Kd [3] of 400 ± 40 nM and a Kd [4] of 520 ± 60 nM.

B2: biotin-75 bp dsDNA (dsDNA)
DNA 1: B1 DNA 1
DNA 2: B1 DNA 2
B2: no binding [5].

B3: 75 bp dsDNA (dsDNA)
DNA 1: B1 DNA 1
DNA 2: B1 DNA 2
B3: no binding [6].

B4: ssDNA-dsDNA junction (5' hairpin-poly(dT) 3') (structured_DNA)
DNA: CCGGCCCGCGGTGTCCGCGGGCCGGTTTTTTTTTTTTTTTTTTTTTTTTTTTTTTTTTTTTTTTTTTTTTTTTTT
B4: binds ([7]; chain copies: 2;4;4, hairpin with 3' poly(dT) overhang); binds [8].

B5: 75 base FAM-poly(dT) (ssDNA)
DNA: TTTTTTTTTTTTTTTTTTTTTTTTTTTTTTTTTTTTTTTTTTTTTTTTTTTTTTTTTTTTTTTTTTTTTTTTTTT
For B5, the binding result ([7]; chain copies: 2;4;4, label: 5'-FAM) was “binds” and the Kd [9] was 870 ± 70 nM.
